Entries after “also recorded” stand apart in the source; their conditions may differ. Read-outs that look alike come from different tables or passages of the source.
Assays:
[1] = Melting temperatures (Tm) of KASIII enzymes without ligand; assay type: physicochemical; details: in water, no ligand, baseline Tm
[2] = assay type: binding; details: ligand in 50-fold molar excess, relative to water control
[3] = system: B. subtilis ΔyjaXΔyhfB mutant strain; assay: Genetic complementation of B. subtilis ΔyjaXΔyhfB double mutant with KASIII genes; details: grown without exogenous branched-chain fatty acids, IPTG induced
Procedure: Genetic complementation of the B. subtilis ΔyjaXΔyhfB double mutant strain with aaKASIII, taKASIII or ecKASIII expression vectors was conducted using pUCB-erm-derived plasmids carrying the different KASIII ORF sequences. In these vectors each of the different KASIII ORFs were under the control of the Pspac promoter and were inserted between the downstream and upstream DNA fragments of the 135-bp ORF in the ΔyhfB allele of the ΔyjaXΔyhfB::erm double mutant.
The B. subtilis ΔyjaXΔyhfB mutant strain was used as a vehicle to screen for KASIII enzymes that can utilize branched-chain acyl-CoA substrates and can therefore synthesize branched-chain fatty acids, thereby rescuing the lethal ΔyjaXΔyhfB deletion phenotype. […] The resulting three B. subtilis ΔyjaXΔyhfB mutant strains, each expressing one of the recombinant KASIII genes (due to the inclusion of the inducer IPTG in the media), were grown in the absence of exogenously supplied branched-chain fatty acids.

[4] = Spectrophotometric coupled assay (FabD/FabG, NADPH at 340 nm) of KASIII specific activity with acyl-CoA substrates; details: n.d. = not detectable; for Specific Activity with Isobutyryl-CoA: substrate isobutyryl-CoA
Procedure: The method comprises (i) incubating holo-ACP, malonyl-CoA, acyl-CoA, NADPH, and malonyl-CoA:ACP transacylase (FabD), (ii) adding KASIII and 3-ketoacyl-ACP reductase (FabG), and (iii) measuring the change in absorbance at 340 nm when NADPH is converted to NADP+ during reduction of 3-ketoacyl-ACP to 3-hydroxyl-acyl ACP by FabG.
Activity of A. acidocaldarius KASIII with different acyl-CoA substrates (acetyl-CoA, isobutyryl-CoA and 3-hydroxybutyryl-CoA (Sigma-Aldrich)) was ascertained by a coupled assay. The assay was performed in 96-well plate format with three replicates for each reaction condition. In a total volume of 100 μl for each reaction the reaction mix containing 100 μM holo-ACP, 200 μM malonyl-CoA, 10 mM DTT, 50 μM acyl-CoA substrate (either acetyl-CoA, isobutyryl-CoA or 3-hydroxy-butyryl-CoA) and 200 μM NADPH in 0.1 M sodium phosphate buffer (pH 7.2) was pre-incubated with 60 μg of FabD for two minutes. The reaction was started by the addition of 30 μg of FabG and varying concentrations of A. acidocaldarius (0.5-15 μg). Change in absorbance of NADPH that was being converted to NADP^+ during reduction of 3-ketoacyl-ACP 3-hydroxy-acyl-ACP by FabG was recorded at 340 nm using a Biotek multi-plate reader.
Spectrophotometric assay was used to assess the activity of A. acidocaldarius KASIII with various acyl-CoA substrates. The assay coupled the appearance of the KASIII-product (3-ketoacyl-ACP) to the oxidation of NADPH, catalyzed by 3-ketoacyl-ACP reductase (FabG).
KASIII enzymatic activity was ascertained via spectrophotometric assay, which coupled the appearance of 3-ketoacyl-ACP to the oxidation of NADPH, using the E. coli FabG protein to reduce 3-ketoacyl-ACP to 3-hydroxyacyl-ACP. The assay was performed in a 96-well plate-format with three technical replicates for each reaction condition. In a total volume of 100 μl for each reaction, the reaction mix contained 100 μM holo-ACP, 200 μM malonyl-CoA, 10 mM DTT, 50 μM acyl-CoA substrate, and 200 μM NADPH in 0.1 M sodium phosphate buffer (pH 7.2). This mixture was pre-incubated with 60 μg of FabD for two minutes to initiate synthesis of malonyl-ACP from malonyl-CoA and holo-ACP. The reaction was then started by the addition of 30 μg of FabG and varying concentrations of KASIII enzyme (0.5-15 μg). As KASIII catalysed the condensation of acyl-CoA with malonyl-ACP to form 3-ketoacyl-ACP, FabG reduced the 3-ketoacyl-ACP intermediate to 3-hydroxy-acyl ACP in the presence of NADPH.

[5] = Kinetic parameters of aaKASIII and ecKASIII (spectrophotometric enzyme assay); assay type: biochemical
Procedure: Therefore, aaKASIII was assayed with 3-hydroxybutyryl-CoA as a substrate, and its specific activity was determined using an in vitro spectrophotometric enzyme assay. KASIII enzyme assays were carried out spectrophotometrically using 400 μM ACP, 400 μM malonyl-CoA, 10-400 μM various acyl-CoAs, 400 μM NADPH, 1 mM DTT, 6 mg/ml FabD, 1.5 mg/ml FabG, and either 4 mg/ml of aaKASIII or 9.5 mg/ml of ecKASIII. The specific activity for this reaction catalysed by aaKASIII was 5-fold and 3-fold higher with isobutyryl-CoA and 3-hydroxybutyryl-CoA, respectively, than that obtained with acetyl-CoA.

[6] = Saturation Transfer Difference NMR of KASIII enzymes with acetyl-CoA or isobutyryl-CoA; assay type: binding; details: protein/ligand 1:100, 25° C.
Procedure: NMR experiments were performed at 25° C. on a Bruker AV700 MHz spectrometer equipped with a 5 mm HCN cryoprobe. Samples for STD NMR experiments were prepared in 0.1 M sodium phosphate buffer (pH 7.4) with 5% D2O. The protein/ligand ratio was set as 1:100 with KASIII concentration in the 20-25 μM range. Saturation was applied as CW pulse with a power of 58-60 Hz, with on-resonance pulses at 0.62 ppm and 6.86 ppm for upfield and downfield, respectively. The off-resonance pulse was applied at 45 ppm. 3-9-19 WATERGATE suppression was used with a T1-ρ filter. Saturation time of five seconds with an additional delay of 5.1 seconds was used. A set of three replicates was acquired, with 32 scans in each replicate, for each STD NMR experiment of KASIII wild-type or mutated enzyme with a ligand, which was either acetyl-CoA or isobutyryl-CoA (Sigma-Aldrich, St. Louis, Mo.). The reference and the saturated spectra were obtained in an interleaved manner. Resonance assignments of 1H NMR spectra of free ligands were completed using ID 1H and COSY.
Control experiments were carried out by applying on- and off-resonance saturation pulses either to the ligand in the absence of protein, or to the ligand in the presence of denatured protein.
Relative STD effects (ASTD) were calculated according to the equation ASTD=(Io−Isat)/Io where Isat is the signal intensity of the saturated spectrum and Io is the signal intensity of the reference spectrum (Mayer et al., J. Am. Chem. Soc. 123: 6108-6117 (2001)). STD amplification factor was calculated according to the equation: STDaf=ASTD×molar ligand excess.
STD NMR experiments elucidated interactions of these purified enzymes (both wild-type and mutated) with straight-chain substrate (acetyl-CoA) and branched-chain substrate (isobutyryl-CoA) and enabled mapping of binding epitopes on the two substrates. Relative saturation transfer to each of the binding epitopes was measured and converted to the STD amplification factor (STDaf), which is an indicator of ligand binding (Mayer et al., J. Am. Chem. Soc. 123: 6108-6117 (2001)). Ligand epitopes with high STDaf values are assumed to receive higher saturation transfer from the enzyme, and thus are in close contact with the enzyme.

E. coli KASIII Wild-type: E. coli 3-ketoacyl-ACP synthase III encoded by fabH, GenBank AAG55837.1, amino acid sequence SEQ ID NO:62
Melting temperature (Tm) without ligand [1]: 55.0 ± 0.18 °C | Melting temperature (Tm) without ligand ([1]; listed as ecKASIII): ~55.0 °C | Thermal shift: increase in Tm with acetyl-CoA ([2]; listed as ecKASIII): bound; also recorded: positive thermal shifts | Thermal shift: increase in Tm with propionyl-CoA ([2]; listed as ecKASIII): bound; also recorded: positive thermal shifts | Rescue of the lethal phenotype of the B. subtilis ΔyjaXΔyhfB mutant strain [3]: could not | Specific Activity with Acetyl-CoA ([4]; substrate acetyl-CoA): 447 ± 68 nmol/min/mg | Specific Activity with Isobutyryl-CoA [4]: 36 ± 14 nmol/min/mg | Kinetic parameters (whole line) ([5]; substrate 3-OH-butyryl-CoA): not a substrate | Km ([5]; substrate acetyl-CoA): 96.8 ± 4.7 µM | Specific Activity ([5]; substrate acetyl-CoA): 447 ± 68 nmol/mg/min | Vmax ([5]; substrate acetyl-CoA): 0.00033 ± 1e-05 µmol/s | kcal ([5]; substrate acetyl-CoA): 0.0214 ± 0.00093 s⁻¹ | Kinetic parameters (whole line) ([5]; substrate isobutyryl-CoA): not a substrate | STD amplification factor (STDaf), HAP proton of acetyl-CoA [6]: ~6.0 | STD amplification factor (STDaf), HB proton of isobutyryl-CoA [6]: ~4.0 | STD amplification factor (STDaf), HT proton of acetyl-CoA [6]: ~5.0 | STD amplification factor (STDaf), HT proton of isobutyryl-CoA [6]: 2.5

B1: B. subtilis KASIIIb Wild-type: B. subtilis KASIIIB, bfabHB (yhfB) locus, GenBank CAB12857.1, amino acid sequence SEQ ID NO:66 (protein)
chain: MSKAKITAIGTYAPSRRLTNADLEKIVDTSDEWIVQRTGMRERRIADEHQFTSDLCIEAVKNLKSRYKGTLDDVDMILVATTTSDYAFPSTACRVQEYFGWESTGALDINATCAGLTYGLHLANGLITSGLHQKILVIAGETLSKVTDYTDRTTCVLFGDAAGALLVERDEETPGFLASVQGTSGNGGDILYRAGLRNEINGVQLVGSGKMVQNGREVYKWAARTVPGEFERLLHKAGLSSDDLDWFVPHSANLRMIESICEKTPFPIEKTLTSVEHYGNTSSVSIVLALDLAVKAGKLKKDQIVLLFGFGGGLTYTGLLIKWGM
modifications: B. subtilis
Melting temperature (Tm) without ligand [1]: 48.7 ± 0.24 °C | Melting temperature (Tm) without ligand ([1]; listed as bsKASIIIb): ~48.7 °C | Thermal shift: increase in Tm with 3-hydroxybutyryl-CoA [2]: thermally stabilized | Thermal shift: increase in Tm with butyryl-CoA [2]: ≥ 6 °C | Thermal shift: increase in Tm with crotonyl-CoA [2]: ≥ 6 °C | Thermal shift: increase in Tm with isobutyryl-CoA [2]: ≥ 6 °C | Thermal shift: increase in Tm with isovaleryl-CoA [2]: ≥ 6 °C | Thermal shift: increase in Tm with methylmalonyl-CoA [2]: ≥ 6 °C | Thermal shift: increase in Tm with phenylacetyl-CoA [2]: ≥ 6 °C | Thermal shift: increase in Tm with propionyl-CoA [2]: ≥ 6 °C | Thermal shift: increase in Tm with benzoyl-CoA ([2]; listed as bsKASIIIb): destabilized the bsKASIIIb protein | Thermal shift: increase in Tm with hexanoyl-CoA ([2]; listed as bsKASIIIb): destabilized the bsKASIIIb protein | Specific Activity with Isobutyryl-CoA [4]: 279 ± 8 nmol/min/mg

— patent US10184140B2, “Materials and methods for production of bi-functional fatty acids in recombinant bacteria” (IOWA STATE UNIVERSITY RESEARCH FOUNDATION, INC., priority 2013, dated 2019)
